From PMC5587591, “Enoyl-CoA hydratase-1 regulates mTOR signaling and apoptosis by sensing nutrients” (Nature Communications, 2017)

T1: SIRT3 (Homo sapiens, UniProt Q9NTG7)
T1 construct: recombinant from E. coli (DE3)
T1 sequence (Q9NTG7 102-399): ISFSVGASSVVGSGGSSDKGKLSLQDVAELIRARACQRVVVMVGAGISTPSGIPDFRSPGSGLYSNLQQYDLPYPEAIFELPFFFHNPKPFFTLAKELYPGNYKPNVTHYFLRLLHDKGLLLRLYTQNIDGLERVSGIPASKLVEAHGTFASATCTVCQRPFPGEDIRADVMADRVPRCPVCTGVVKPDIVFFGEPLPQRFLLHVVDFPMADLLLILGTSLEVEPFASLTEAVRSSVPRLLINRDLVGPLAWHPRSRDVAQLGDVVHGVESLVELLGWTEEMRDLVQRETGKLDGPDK


How the values were obtained:
SIRT3 = target: T1, SIRT3; assay: deacetylation of AcK101 ECHS1 peptide, MS; assay type: biochemical; details: 1 mM NAD+, 30 mM HEPES pH 7.0, 37 °C; acetylated 9-residue ECHS1 peptide as co-substrate
purified protein = substrate: C/C=C/C(=O)SCCNC(=O)CCNC(=O)[C@H](O)C(C)(C)COP(=O)(O)OP(=O)(O)OC[C@H]1O[C@@H](n2cnc3c(N)ncnc32)[C@H](O)[C@@H]1OP(=O)(O)O; assay: purified protein; assay type: biochemical, Homo sapiens; details: 50 mM Tris-HCl pH 8.0

Molecule	deacetylation of AcK101 ECHS1 peptide, MS (SIRT3)	Km (purified protein)
NC(=O)c1ccc[n+]([C@@H]2O[C@H](COP(=O)(O)OP(=O)(O)OC[C@H]3O[C@@H](n4cnc5c(N)ncnc54)[C@H](O)[C@@H]3O)[C@@H](O)[C@H]2O)c1 [NAD^+]	SIRT3 deacetylated synthetic AcK101-containing ECHS1 peptide in an NAD^+-dependent manner in vitro	
ECHS1 (enoyl-CoA hydratase-1) (Homo sapiens) (protein) ASGANFEYIIAEKRGKNNTVGLIQLNRPKALNALCDGLIDELNQALKTFEEDPAVGAIVLTGGDKAFAAGADIKEMQNLSFQDCYSSKFLKHWDHLTQVKKPVIAAVNGYAFGGGCELAMMCDIIYAGEKAQFAQPEILIGTIPGAGGTQRLTRAVGKSLAMEMVLTGDRISAQDAKQAGLVSKICPVETLVEEAIQCAEKIASNSKIVVAMAKESVNAAFEMTLTEGSKLEKKLFYSTFATDDRKEGMTAFVEKRKANFKDQ		360 ± 180 µM
ECHS1 (enoyl-CoA hydratase-1) (Homo sapiens; K101R) (protein) ASGANFEYIIAEKRGKNNTVGLIQLNRPKALNALCDGLIDELNQALKTFEEDPAVGAIVLTGGDKAFAAGADIREMQNLSFQDCYSSKFLKHWDHLTQVKKPVIAAVNGYAFGGGCELAMMCDIIYAGEKAQFAQPEILIGTIPGAGGTQRLTRAVGKSLAMEMVLTGDRISAQDAKQAGLVSKICPVETLVEEAIQCAEKIASNSKIVVAMAKESVNAAFEMTLTEGSKLEKKLFYSTFATDDRKEGMTAFVEKRKANFKDQ		300 ± 80 µM
ECHS1 (enoyl-CoA hydratase-1) (Homo sapiens; K101Q) (protein) ASGANFEYIIAEKRGKNNTVGLIQLNRPKALNALCDGLIDELNQALKTFEEDPAVGAIVLTGGDKAFAAGADIQEMQNLSFQDCYSSKFLKHWDHLTQVKKPVIAAVNGYAFGGGCELAMMCDIIYAGEKAQFAQPEILIGTIPGAGGTQRLTRAVGKSLAMEMVLTGDRISAQDAKQAGLVSKICPVETLVEEAIQCAEKIASNSKIVVAMAKESVNAAFEMTLTEGSKLEKKLFYSTFATDDRKEGMTAFVEKRKANFKDQ		740 ± 430 µM
